Patent publication US20220204580A1 (AstraZeneca / MedImmune, published 2022)
Numbered stars: 1 amine (or outer) side, 2 acyl side, 3 side chain; on linkers, the order of the positions; unused ones are H or OH. Bridge positions count the residues as written; N and C are the ends. Square brackets hold non-standard residues; d marks the D form. Side chains are listed from the residue outwards. Ends that are not written are not given here. * marks the point of attachment. C20 diacid = O=C(O)CCCCCCCCCCCCCCCCCCC(=O)*; C18 diacid = O=C(O)CCCCCCCCCCCCCCCCC(=O)*; γGlu = O=C(O)[C@H](CCC(=O)[*:2])N[*:1]; αMeF = C[C@](N)(Cc1ccccc1)C(=O)O; Aib = CC(C)(N)C(=O)O

T1: human amylin receptor (calcitonin receptor co-expressed with receptor activity modifying protein, RAMP3) (human, UniProt P30988 25-474; O60896 24-148)
T1 sequence (looked up) 1: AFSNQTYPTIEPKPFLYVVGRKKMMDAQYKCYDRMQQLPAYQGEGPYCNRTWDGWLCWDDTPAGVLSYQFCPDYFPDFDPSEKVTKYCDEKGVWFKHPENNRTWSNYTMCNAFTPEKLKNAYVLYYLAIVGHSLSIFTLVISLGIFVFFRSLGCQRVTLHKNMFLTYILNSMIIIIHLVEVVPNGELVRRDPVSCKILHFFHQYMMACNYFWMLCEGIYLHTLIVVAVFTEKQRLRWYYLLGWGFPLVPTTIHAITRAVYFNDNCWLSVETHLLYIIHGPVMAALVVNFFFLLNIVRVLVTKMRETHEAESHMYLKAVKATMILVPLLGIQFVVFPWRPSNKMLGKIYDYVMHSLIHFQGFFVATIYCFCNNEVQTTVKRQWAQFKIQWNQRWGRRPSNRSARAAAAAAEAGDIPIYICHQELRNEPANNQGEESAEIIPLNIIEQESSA
T1 sequence (looked up) 2: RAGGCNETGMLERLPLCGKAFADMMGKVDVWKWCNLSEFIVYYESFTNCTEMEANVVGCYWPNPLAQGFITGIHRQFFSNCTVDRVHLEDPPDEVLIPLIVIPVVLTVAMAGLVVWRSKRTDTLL

T2: human calcitonin receptor (human, UniProt P30988 25-474)
T2 sequence (looked up): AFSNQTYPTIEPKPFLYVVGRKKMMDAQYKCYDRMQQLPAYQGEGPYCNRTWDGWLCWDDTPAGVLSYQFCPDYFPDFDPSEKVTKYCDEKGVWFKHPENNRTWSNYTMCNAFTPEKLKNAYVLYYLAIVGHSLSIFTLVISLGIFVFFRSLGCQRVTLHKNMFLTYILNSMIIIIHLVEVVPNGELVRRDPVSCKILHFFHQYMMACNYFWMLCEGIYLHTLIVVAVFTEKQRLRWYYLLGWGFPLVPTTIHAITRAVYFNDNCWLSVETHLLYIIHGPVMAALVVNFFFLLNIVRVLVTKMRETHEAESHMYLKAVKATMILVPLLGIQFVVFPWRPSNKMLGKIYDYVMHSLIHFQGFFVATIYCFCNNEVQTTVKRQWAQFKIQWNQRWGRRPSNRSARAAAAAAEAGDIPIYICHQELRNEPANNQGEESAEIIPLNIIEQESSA

T3: rat amylin receptor (calcitonin receptor co-expressed with receptor activity modifying protein, RAMP3) (rat, UniProt P32214 25-516; Q9JJ73 23-147)
T3 sequence (looked up) 1: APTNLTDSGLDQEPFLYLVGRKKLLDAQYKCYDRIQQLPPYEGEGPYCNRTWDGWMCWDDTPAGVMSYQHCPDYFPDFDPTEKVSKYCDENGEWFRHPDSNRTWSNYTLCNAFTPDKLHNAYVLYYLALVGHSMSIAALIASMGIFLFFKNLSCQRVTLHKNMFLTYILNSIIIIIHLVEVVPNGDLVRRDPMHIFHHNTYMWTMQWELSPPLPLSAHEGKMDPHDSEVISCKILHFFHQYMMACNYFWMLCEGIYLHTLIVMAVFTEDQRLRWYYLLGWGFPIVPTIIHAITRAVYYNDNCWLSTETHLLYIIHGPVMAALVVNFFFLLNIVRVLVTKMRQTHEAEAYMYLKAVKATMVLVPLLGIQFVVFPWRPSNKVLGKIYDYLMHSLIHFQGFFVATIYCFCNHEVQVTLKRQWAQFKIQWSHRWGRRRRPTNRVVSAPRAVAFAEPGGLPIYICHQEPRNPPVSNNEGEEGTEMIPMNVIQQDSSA
T3 sequence (looked up) 2: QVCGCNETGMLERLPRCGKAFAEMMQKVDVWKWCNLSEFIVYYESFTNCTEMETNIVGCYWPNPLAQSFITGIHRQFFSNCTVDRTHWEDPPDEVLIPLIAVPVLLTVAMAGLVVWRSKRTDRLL

T4: rat calcitonin receptor (rat, UniProt P32214 25-516)
T4 sequence (looked up): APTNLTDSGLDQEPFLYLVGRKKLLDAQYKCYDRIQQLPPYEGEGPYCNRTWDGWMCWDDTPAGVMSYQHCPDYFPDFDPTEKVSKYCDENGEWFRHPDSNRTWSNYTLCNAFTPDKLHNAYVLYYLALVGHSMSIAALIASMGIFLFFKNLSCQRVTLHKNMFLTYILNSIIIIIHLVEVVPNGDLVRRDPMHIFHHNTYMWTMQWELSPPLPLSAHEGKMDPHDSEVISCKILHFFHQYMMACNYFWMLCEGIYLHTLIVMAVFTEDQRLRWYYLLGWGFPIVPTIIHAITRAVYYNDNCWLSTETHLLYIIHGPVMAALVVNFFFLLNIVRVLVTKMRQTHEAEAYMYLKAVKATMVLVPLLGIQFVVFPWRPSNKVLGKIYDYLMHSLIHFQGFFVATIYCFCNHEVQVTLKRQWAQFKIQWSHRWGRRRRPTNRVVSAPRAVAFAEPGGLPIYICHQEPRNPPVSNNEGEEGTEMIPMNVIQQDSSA


What was measured:
Test in all cases: cell-based or functional assay
[1] = target: T1, human amylin receptor (calcitonin …)
[2] = target: T2, human calcitonin receptor
[3] = target: T3, rat amylin receptor (calcitonin …)
[4] = target: T4, rat calcitonin receptor

Binder | EC50 (cAMP production) [1] | Ratio (EC50 hCTR / EC50 hAMYR3) [1] | EC50 (cAMP production) [2] | EC50 (cAMP production) [3] | EC50 (cAMP production) [4]
K([γGlu-C18 diacid])KCNTATCATQRLANFLRHSSNN[αMeF]GPILPPTEVGSNTY-NH2 (disulfide 3-8; N-terminus assumed; SMILES CC[C@H](C)[C@H](NC(=O)[C@@H]1CCCN1C(=O)CNC(=O)[C@](C)(Cc1ccccc1)NC(=O)[C@H](CC(N)=O)NC(=O)[C@H](CC(N)=O)NC(=O)[C@H](CO)NC(=O)[C@H](CO)NC(=O)[C@H](Cc1c[nH]cn1)NC(=O)[C@H](CCCNC(=N)N)NC(=O)[C@H](CC(C)C)NC(=O)[C@H](Cc1ccccc1)NC(=O)[C@H](CC(N)=O)NC(=O)[C@H](C)NC(=O)[C@H](CC(C)C)NC(=O)[C@H](CCCNC(=N)N)NC(=O)[C@H](CCC(N)=O)NC(=O)[C@@H](NC(=O)[C@H](C)NC(=O)[C@@H]1CSSC[C@H](NC(=O)[C@H](CCCCN)NC(=O)[C@@H](N)CCCCNC(=O)CC[C@H](NC(=O)CCCCCCCCCCCCCCCCC(=O)O)C(=O)O)C(=O)N[C@@H](CC(N)=O)C(=O)N[C@@H]([C@@H](C)O)C(=O)N[C@@H](C)C(=O)N[C@@H]([C@@H](C)O)C(=O)N1)[C@@H](C)O)C(=O)N[C@@H](CC(C)C)C(=O)N1CCC[C@H]1C(=O)N1CCC[C@H]1C(=O)N[C@H](C(=O)N[C@@H](CCC(=O)O)C(=O)N[C@H](C(=O)NCC(=O)N[C@@H](CO)C(=O)N[C@@H](CC(N)=O)C(=O)N[C@H](C(=O)N[C@@H](Cc1ccc(O)cc1)C(N)=O)[C@@H](C)O)C(C)C)[C@@H](C)O) [Peptide 15 (SEQ ID NO: 15)] | 522 pM | 10 | 5.46 nM | 10.3 pM | 1820 pM
K([γGlu-γGlu-C20 diacid])CNTATCATQRLAEFLRHSSNNFGPILPPTNVGSNTY-NH2 (disulfide 2-7; N-terminus assumed; SMILES CC[C@H](C)[C@H](NC(=O)[C@@H]1CCCN1C(=O)CNC(=O)[C@H](Cc1ccccc1)NC(=O)[C@H](CC(N)=O)NC(=O)[C@H](CC(N)=O)NC(=O)[C@H](CO)NC(=O)[C@H](CO)NC(=O)[C@H](Cc1c[nH]cn1)NC(=O)[C@H](CCCNC(=N)N)NC(=O)[C@H](CC(C)C)NC(=O)[C@H](Cc1ccccc1)NC(=O)[C@H](CCC(=O)O)NC(=O)[C@H](C)NC(=O)[C@H](CC(C)C)NC(=O)[C@H](CCCNC(=N)N)NC(=O)[C@H](CCC(N)=O)NC(=O)[C@@H](NC(=O)[C@H](C)NC(=O)[C@@H]1CSSC[C@H](NC(=O)[C@@H](N)CCCCNC(=O)CC[C@H](NC(=O)CC[C@H](NC(=O)CCCCCCCCCCCCCCCCCCC(=O)O)C(=O)O)C(=O)O)C(=O)N[C@@H](CC(N)=O)C(=O)N[C@@H]([C@@H](C)O)C(=O)N[C@@H](C)C(=O)N[C@@H]([C@@H](C)O)C(=O)N1)[C@@H](C)O)C(=O)N[C@@H](CC(C)C)C(=O)N1CCC[C@H]1C(=O)N1CCC[C@H]1C(=O)N[C@H](C(=O)N[C@@H](CC(N)=O)C(=O)N[C@H](C(=O)NCC(=O)N[C@@H](CO)C(=O)N[C@@H](CC(N)=O)C(=O)N[C@H](C(=O)N[C@@H](Cc1ccc(O)cc1)C(N)=O)[C@@H](C)O)C(C)C)[C@@H](C)O) [Peptide 116 (SEQ ID NO: 116)] | 1210 pM | 8 | 9.56 nM | 23.7 pM | 9050 pM
K([γGlu-C18 diacid])KCNTATCATQRLANFL[Aib]HSSNNFGPILPPTEVGSNTY-NH2 (disulfide 3-8; N-terminus assumed; SMILES CC[C@H](C)[C@H](NC(=O)[C@@H]1CCCN1C(=O)CNC(=O)[C@H](Cc1ccccc1)NC(=O)[C@H](CC(N)=O)NC(=O)[C@H](CC(N)=O)NC(=O)[C@H](CO)NC(=O)[C@H](CO)NC(=O)[C@H](Cc1c[nH]cn1)NC(=O)C(C)(C)NC(=O)[C@H](CC(C)C)NC(=O)[C@H](Cc1ccccc1)NC(=O)[C@H](CC(N)=O)NC(=O)[C@H](C)NC(=O)[C@H](CC(C)C)NC(=O)[C@H](CCCNC(=N)N)NC(=O)[C@H](CCC(N)=O)NC(=O)[C@@H](NC(=O)[C@H](C)NC(=O)[C@@H]1CSSC[C@H](NC(=O)[C@H](CCCCN)NC(=O)[C@@H](N)CCCCNC(=O)CC[C@H](NC(=O)CCCCCCCCCCCCCCCCC(=O)O)C(=O)O)C(=O)N[C@@H](CC(N)=O)C(=O)N[C@@H]([C@@H](C)O)C(=O)N[C@@H](C)C(=O)N[C@@H]([C@@H](C)O)C(=O)N1)[C@@H](C)O)C(=O)N[C@@H](CC(C)C)C(=O)N1CCC[C@H]1C(=O)N1CCC[C@H]1C(=O)N[C@H](C(=O)N[C@@H](CCC(=O)O)C(=O)N[C@H](C(=O)NCC(=O)N[C@@H](CO)C(=O)N[C@@H](CC(N)=O)C(=O)N[C@H](C(=O)N[C@@H](Cc1ccc(O)cc1)C(N)=O)[C@@H](C)O)C(C)C)[C@@H](C)O) [Peptide 140 (SEQ ID NO: 140)] | 656 pM | 9.2 | 6.05 nM | 19.5 pM | 1220 pM

Further lines, results first:

EC50 (cAMP production) [1] | Ratio (EC50 hCTR / EC50 hAMYR3) [1] | EC50 (cAMP production) [2] | EC50 (cAMP production) [3] | EC50 (cAMP production) [4] | Binder
553 pM | 10.4 | 5.75 nM | 11.2 pM | 2870 pM | K([γGlu-C18 diacid])KCNTATCATQRLANFL[Aib]HSSNNFGPILPPTNVGSNTY-NH2 (disulfide 3-8; N-terminus assumed; SMILES CC[C@H](C)[C@H](NC(=O)[C@@H]1CCCN1C(=O)CNC(=O)[C@H](Cc1ccccc1)NC(=O)[C@H](CC(N)=O)NC(=O)[C@H](CC(N)=O)NC(=O)[C@H](CO)NC(=O)[C@H](CO)NC(=O)[C@H](Cc1c[nH]cn1)NC(=O)C(C)(C)NC(=O)[C@H](CC(C)C)NC(=O)[C@H](Cc1ccccc1)NC(=O)[C@H](CC(N)=O)NC(=O)[C@H](C)NC(=O)[C@H](CC(C)C)NC(=O)[C@H](CCCNC(=N)N)NC(=O)[C@H](CCC(N)=O)NC(=O)[C@@H](NC(=O)[C@H](C)NC(=O)[C@@H]1CSSC[C@H](NC(=O)[C@H](CCCCN)NC(=O)[C@@H](N)CCCCNC(=O)CC[C@H](NC(=O)CCCCCCCCCCCCCCCCC(=O)O)C(=O)O)C(=O)N[C@@H](CC(N)=O)C(=O)N[C@@H]([C@@H](C)O)C(=O)N[C@@H](C)C(=O)N[C@@H]([C@@H](C)O)C(=O)N1)[C@@H](C)O)C(=O)N[C@@H](CC(C)C)C(=O)N1CCC[C@H]1C(=O)N1CCC[C@H]1C(=O)N[C@H](C(=O)N[C@@H](CC(N)=O)C(=O)N[C@H](C(=O)NCC(=O)N[C@@H](CO)C(=O)N[C@@H](CC(N)=O)C(=O)N[C@H](C(=O)N[C@@H](Cc1ccc(O)cc1)C(N)=O)[C@@H](C)O)C(C)C)[C@@H](C)O) [Peptide 129 (SEQ ID NO: 129)]
246 pM | 5 | 1.35 nM | 2.9 pM | 186 pM | {C18 diacid}-[γGlu]KCNTATCATQRLANFLVHSSNNFGPILPPTNVGSNTY-NH2 (disulfide 3-8) [Peptide 3 (SEQ ID NO: 3)]
